According to patent US20190152966A1 (INSTITUTE OF CANCER RESEARCH ROYAL CANCER HOSPITAL, published 2019):

Target: T1, Epidermal Growth Factor Receptor (EGFR) (human, UniProt P00533 25-1210)
T1 construct: whole, on cells; also called HER1; EGF receptor
Experiment: heading of the results section on rhMATN2 added to MDA-MB-231 cells

- binding result: binds
B1: recombinant human MATN2 (rhMATN2) (ligand, UniProt O00339 24-956, looked up)
chain: RERSRGRSISRGRHARTHPQTALLESSCENKRADLVFIIDSSRSVNTHDYAKVKEFIVDILQFLDIGPDVTRVGLLQYGSTVKNEFSLKTFKRKSEVERAVKRMRHLSTGTMTGLAIQYALNIAFSEAEGARPLRENVPRVIMIVTDGRPQDSVAEVAAKARDTGILIFAIGVGQVDFNTLKSIGSEPHEDHVFLVANFSQIETLTSVFQKKLCTAHMCSTLEHNCAHFCINIPGSYVCRCKQGYILNSDQTTCRIQDLCAMEDHNCEQLCVNVPGSFVCQCYSGYALAEDGKRCVAVDYCASENHGCEHECVNADGSYLCQCHEGFALNPDKKTCTKIDYCASSNHGCQHECVNTDDSYSCHCLKGFTLNPDKKTCRRINYCALNKPGCEHECVNMEESYYCRCHRGYTLDPNGKTCSRVDHCAQQDHGCEQLCLNTEDSFVCQCSEGFLINEDLKTCSRVDYCLLSDHGCEYSCVNMDRSFACQCPEGHVLRSDGKTCAKLDSCALGDHGCEHSCVSSEDSFVCQCFEGYILREDGKTCRRKDVCQAIDHGCEHICVNSDDSYTCECLEGFRLAEDGKRCRRKDVCKSTHHGCEHICVNNGNSYICKCSEGFVLAEDGRRCKKCTEGPIDLVFVIDGSKSLGEENFEVVKQFVTGIIDSLTISPKAARVGLLQYSTQVHTEFTLRNFNSAKDMKKAVAHMKYMGKGSMTGLALKHMFERSFTQGEGARPLSTRVPRAAIVFTDGRAQDDVSEWASKAKANGITMYAVGVGKAIEEELQEIASEPTNKHLFYAEDFSTMDEISEKLKKGICEALEDSDGRQDSPAGELPKTVQQPTESEPVTINIQDLLSCSNFAVQHRYLFEEDNLLRSTQKLSHSTKPSGSPLEEKHDQCKCENLIMFQNLANEEVRKLTQRLEEMTQRMEALENRLRYR
notes: also called Matrilin2; human recombinant MATN2
